Key:
[1] = target: T1, recombinant PD-1 extracellular domain Fc fusion protein (PD-1 Fc) (human, biotin label (sites not given) in the ELISA binding assay; unlabelled when coated in the ligand blocking assay); assay: ligand binding blocking ELISA as in Example 2, competitor biotin-labeled PD-L1
T1 construct: also called human PD-1Fc; human PD-1
Description: In this experiment, a 96-well plate was coated with a PD-1 protein with the extracellular domain fused with FC (PD-1-FC), and incubated with the test PD-1 antibody; later biotin-labeled PD-L1 was added for incubation. After washing the plate, the binding amount of biotin-labeled PD-L1 was detected; the blocking IC₅₀ value of PD-1 antibody for ligand PD-L1 binding was calculated.
PD-1-FC was diluted to 1 μg/ml with PH 9.6 CB buffer (1.59 g Na₂CO₃ and 2.93 g NaHCO₃ were dissolved in 1 L of distilled water), pipetted into a 96-well plate at 100 μl/well and standed for 16 h-20 h at 4° C. The 96-well plate was washed once with PBST (PH7.4 PBS, containing 0.05% tweeen20) after PBS buffer was removed, then the plate was incubated and blocked for 1 h at room temperature with 120 μl/well PBST/1% milk. After removal of the blocking solution, the plate was washed with PBST buffer once, followed by addition of 90 μl of test PD-1 antibody which was diluted to a suitable concentration with sample diluents (PH7.4 PBS containing 5% BSA, 0.05% Tween20), and incubated for 1 h at 4° C. Then 10× concentrations of biotin-labeled PD-L1 (Beijing Sino Biological Inc.) (10 μg/ml) was added to the plate at 10 μl/well, oscillated and mixed by an oscillator, and incubated at 37° C. for 1 h. After removal of the reaction system, the plate was washed for 6 times with PBST buffer, followed by addition of 100 ul/well Streptavidin-Peroxidase Polymer which was diluted by PBST at a ratio of 1:400, and incubated under oscillation for 50 min at room temperature. After being washed with PBST for 6 times, the plate was added with 100 μl/well TMB, and incubated for 5-10 min at room temperature. Then the reaction was terminated with addition of 100 μl/well 1M H₂SO₄. The absorbance value at 450 nm was read on the NOVOStar microplate reader; the blocking IC₅₀ value of PD-1 for ligand PD-L1 binding was calculated.
(§1) Humanized antibodies were subjected to ELISA binding assay (method is the same as that of Example 2), ligand binding blocking assay (method is the same as that of Example 2), and affinity kinetics experiment (method is the same as that of Example 5) in vitro.

[2] = target: T2, PD-1 His protein (Beijing Sino Biological Inc.) (UniProt Q15116 25-167, limits assumed); assay: Biacore SPR as in Example 5, PD-1 His as analyte
T2 construct: Bought reagent, analyte in the Biacore assay; not shown: His tag
Description: According to the instruction of a kit provided by Biacore, the test PD-1 antibody of the present invention was covalently linked to CM5 (GE) chip using a standard amino coupling method. Then a series of gradient concentrations of PD-1 His protein (Beijing Sino Biological Inc.), which were diluted in the same buffer, were loaded into each cycle successively. After that, the samples were regenerated with regenerated reagent in the kit. The antigen-antibody binding kinetics was tracked for 3 minutes and the dissociation kinetics was tracked for 10 minutes. The data obtained was analyzed by GE's BIAevaluation software using 1:1 (Langmuir) binding model.
as §1

[3] = target: T1, recombinant PD-1 extracellular domain …; assay: ELISA as in Example 2, biotinylated PD-1 Fc captured on avidin
Description: The PD-1 antibody blocks signaling pathway of PD-1 and its ligand by binding to PD-1 extracellular domain. In vitro ELISA assay is used to detect the binding property of the PD-1 antibody. Biotinylated PD-1 extracellular domain FC fusion protein (PD-1 FC) is coated onto 96-well plates by binding to neutralization avidin. Signal intensity after the addition of the antibody is used to determine the binding property of the antibody and PD-1.
Neutralization avidin (binding to biotin) was diluted to 1 μl/ml with PBS buffer, pipetted into a 96-well plate with at 100 μl/well and standed for 16 h-20 h at 4° C. The 96-well plate was washed once with PBST (PH7.4 PBS, containing 0.05% tweeen20) after PBS buffer was removed, then the plate was incubated and blocked for 1 h at room temperature with addition of 120 μl/well PBST/1% milk. After removal of the blocking solution, the plate was washed with PBST buffer, followed by addition of 1 μg/ml biotin-labeled PD1-FC which was diluted by PBST/1% milk, and incubated for 1 h at room temperature. After removal of the blocking solution, the plate was washed with PBST buffer for 3 times, followed by addition of the test PD-1 antibody which was diluted to a suitable concentration by PBST/1% milk, and incubated for 1.5 h at room temperature. After removal of reaction system, the plate was washed for 3 times with PBST buffer, followed by addition of 100 μl/well HRP-labeled anti-murine secondary antibody (The Jackson Laboratory) which was diluted by PBST/1% milk, and incubated for 1 h at room temperature. After being washed with PBST for three times, the plate was added with 100 μl/well TMB, and incubated for 5-10 min at room temperature. Then the reaction was terminated with addition of 100μ/well 1M H₂SO₄. The absorbance value at 450 nm was read on NOVOStar microplate reader; the ELISA binding EC₅₀ value was calculated.
as §1

B1: humanized antibody H005-4 (antibody, human IgG4 S228P, kappa, F234A L235A, name in Kabat numbering, V domains shown)
VH: EVQLVESGGGLVQPGGSLRLSCAASGFTFSSYMMSWVRQAPGKRLEWVATISGGGANTYYPDSVKGRFTISRDNAKNSLYLQMNSLRAEDTAVYYCARQLYYFDYWGQGTTVTVSS
VL: DIQMTQSPSSLSASVGDRVTITCLASQTIGTWLTWYQQKPGKSPKLLIYTATSLADGVPSRFSGSGSGTDFTLTISSLQPEDFATYYCQQVYSIPWTFGGGTKVEIKR
notes: Back-mutated variant of H005-1, IgG4 constant region
- IC50 [1]: 1.36 nM
- Kd [2]: 3.89 nM
- EC50 [3]: 0.14 nM

B2: humanized antibody H005-3 (antibody, human IgG4 S228P, kappa, F234A L235A, name in Kabat numbering, V domains shown)
VH: EVQLVESGGGLVQPGGSLRLSCAASGFTFSSYMMSWVRQAPGKGLEWVATISGGGANTYYPDSVKGRFTISRDNAKNSLYLQMNSLRAEDTAVYYCARQLYYFDYWGQGTTVTVSS
VL: DIQMTQSPSSLSASVGDRVTITCLASQTIGTWLTWYQQKPGKSPKLLIYTATSLADGVPSRFSGSGSGTDFTLTISSLQPEDFATYYCQQVYSIPWTFGGGTKVEIKR
notes: as for B1
- IC50 [1]: 1.33 nM
- Kd [2]: 2.45 nM
- EC50 [3]: 0.15 nM

B3: humanized antibody H005-2 (antibody, human IgG4 S228P, kappa, F234A L235A, name in Kabat numbering, V domains shown)
VH: EVQLVESGGGLVQPGGSLRLSCAASGFTFSSYMMSWVRQAPGKRLEWVATISGGGANTYYPDSVKGRFTISRDNAKNSLYLQMNSLRAEDTAVYYCARQLYYFDYWGQGTTVTVSS
VL: DIQMTQSPSSLSASVGDRVTITCLASQTIGTWLTWYQQKPGKAPKLLIYTATSLADGVPSRFSGSGSGTDFTLTISSLQPEDFATYYCQQVYSIPWTFGGGTKVEIKR
notes: as for B1
- IC50 [1]: 1.27 nM
- Kd [2]: 2.98 nM
- EC50 [3]: 0.14 nM
